From the supplement of paper PMC9170038

Tested on: MS2 coat protein
Assay: apparent KD of MS2 coat protein; designed switch direction (-1 OFF switch, 1 ON switch): -1; higher = weaker reporter binding
Outline: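 The buffer was Tris-HCl pH 7.5 with KCl, MgCl2, BSA, DTT, tRNA and Tween-20. In it, SNAP-549-labelled MS2 coat protein was titrated in doubling steps from 0.7 or 1.5 nM to 3 µM over chip-bound RNA switches transcribed by stalled E. coli RNA polymerase on Illumina chips. Apparent KD is the per-design median over clusters of curve fits to normalised fluorescence.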

[1] = Eterna round: R95, input ligand: FMN 200 uM
[2] = Eterna round: R95, input ligand: microRNA oligo, concentration not stated
[3] = Eterna round: R95, input ligand: none
[4] = input ligand: microRNA oligo, concentration not stated

Sequence	apparent KD of MS2 coat protein [2] [nM]	apparent KD of MS2 coat protein (input ligand: FMN 200 uM) [nM]	apparent KD of MS2 coat protein (input ligand: none) [nM]	also measured
UAUACUAGAUAGGAUAUACUAUAUAUAUUUUUCGUAGAAGGAUCUACAUGAGGAUCACCCAUGUUAACAGCAGU [JR_E6_Sub007] (puzzle: Exclusion 6)	42.9			apparent KD of MS2 coat protein [1]: 45 nM; apparent KD of MS2 coat protein [3]: 41.5 nM
GCCGAAAAUGUGAGGAUAUACCUAUGGAUACAUAGGUAGAAGGCACAUGAGGAUCACCCAUGUCCAAUAACGGC [Eli bmx4 4.25] (Eterna round: R97, puzzle: Brourd's mod of Exclusion 4)		528	223	
GAAAAGUGAGGAUAUCGACAUCUCGACAUGAGGAUCACCCAUGUUGUAGGUCGUGUCGAGCGAGAAGGCACAAUAA [EX5 B.9] (Eterna round: R97, puzzle: Exclusion 5)		48.2	15	
CUCGUGCAGCAAAGCUGUACGAGUACAUGAGGAUCACCCAUGUAGGAUAUGGUACGCUUUGCGUGCUAGAAGGACGUGUGUAUG [Mat - Exclusion NG 3 - Mod of JL - D90] (Eterna round: R96, puzzle: Exclusion NG 3)		75.4	39.6	apparent KD of MS2 coat protein [4]: 26.9 nM
CCUCCACAUGAGGAUCACCCAUGUCAGGAUAUCGUGUGUUUUUUUUCGGUCUUGCGUGCGAGAAGGGACGUCUU (puzzle: Exclusion 1)	32.5			
GGUGCGUAUGUGAGGAUAUGCUGGUCCUUGGAUCGGCAGAAGGCACAUGAGGAUCACCCAUGUGGUGUCGUUCC [salish99_Bmod_ex4_100] (puzzle: Brourd's mod of Exclusion 4)	114			
GUCACAUGGACAUAGGAUCACAUGAGGAUCACCCAUGUGACUAACAAGCUUUUUGCUCGUCUUAUGUCCAUGUGAAU [Stov1/15-A3] (Eterna round: R97, puzzle: Sensor, turn-off variant 1)		13	12.9	
GCACGAAGUGUAGGAUAUCUGUGCGAUUAGCUCAGAGAAGGACACAUGAGGAUCACCCAUGUGUUCCAGCGAAAGCAAACGUGC [Eli exng1 - 055] (Eterna round: R96, puzzle: Exclusion NG 1)		9.68	12.9	apparent KD of MS2 coat protein [4]: 7.78 nM
GCCCGGGCAGGAUAUACAAUGAGCUUGAGAAAUCGAGUUCGACAUGAGGAUCACCCAUGUAGAAGGGCCCGGGC [-37.4, -35.1 kcal, A 28% 1] (Eterna round: R97, puzzle: Exclusion 2)		24.5	14.9	
UUUUACAUAGGAUAUAGUUUGUUGUACAUGAGGAUCACCCAUGUUUUUGGUUGUGCUUUUCUAGAAGGAUGUUUCU [JR_E5_Sub015] (puzzle: Exclusion 5)	43.8			
GUAGAGUAAGGAUAUCAAGAAUAGGAUAGAAUGGUUAGAAUUGAGAAGGUACAUGAGGAUCACCCAUGUAAUGU [Excluse me!!!! 4 - Jieux - Exclusion 4] (puzzle: Exclusion 4)	24.1			
ACGUAGGUAGUUAGGAUAUUUAGUAUAUUUACAGUGAAGAAGGAACAUGAGGAUCACCCAUGUAGUGGUGUCCA [Eternabot (L1) Solution 68] (Eterna round: R97, puzzle: Brourd's mod of Exclusion 4)		1200	3180	
UAAAAGGUAGGAUAUACGAAAAAAAAGGGUAGAAAAAAAACACAUGAGGAUCACCCAUGUAGAAGGACCAAAAC [salish99_ex2_r3_047] (puzzle: Exclusion 2)	33.2			apparent KD of MS2 coat protein [1]: 103 nM; apparent KD of MS2 coat protein [3]: 30.3 nM
UAUUCACAUGAGGAUCACCCAUGUCAGGAUAUGCUCGAUAUAUGGAAACAUAUAUCGAGCAGAAGGGACUAGCG [Jieuxxlusion 8 - Jieux - Exclusion 1] (Eterna round: R97, puzzle: Exclusion 1)		98.7	41.2	
AUUUAUGGAGGAUAUACUUGAGGAUCACCCAAGUGGAGUCCCGUUUGGGCGGUAAAUAGUAGAAGGCCGUCCUA [jl-ex3-4.47 ViennaUCT mod] (Eterna round: R97, puzzle: Exclusion 3)		15.7	14.2	
CAAUGACAUGAGGAUCACCCAUGUGAGGAUAUGGAGCGCGACCGCGCGGUCGCGUACACCAGAAGGCGCAGGAA [1st #69] (Eterna round: R97, puzzle: Exclusion 1)		59.7	29.4	
CGUGCGUAUGUGAGGAUAUGCUGGUCCUUGGCUCGGCAGAAGGCACAUGAGGAUCACCCAUGUGGUGUCGUACA [salish99_Bmod_ex4_070] (puzzle: Brourd's mod of Exclusion 4)	69.4			
CUUAGACAUGAGGAUCACCCAUGUGAGGAUAUGAUGCGAUCGUCGAAAGACGAUAGCAUCAGAAGGUACAAAUG [Fiskers Ex 1 - 21] (puzzle: Exclusion 1)	90.5			
GCUGCGCGAGGAUAUGCGGUUUGCGCUGUGGCCCGUGGCGUACAUGAGGAUCACCCAUGUAGAAGGCGUGUGGG [Apr-15 SS2-55] (Eterna round: R96, puzzle: Exclusion 2)		27.6	30.1	apparent KD of MS2 coat protein [4]: 21.3 nM
GCAGCAACUCUAACCAACUAAACAUGAGGAUCACCCAUGUCUCAGGAUAUGGUCUGGAUUACAGGCCAGAAGGGAGAAAGCUGC [Eli exng3 - 042] (Eterna round: R96, puzzle: Exclusion NG 3)		12.4	12.6	apparent KD of MS2 coat protein [4]: 12.3 nM
CCGCAAAUGGAGGAUAUCGUAUCGGAUACGAUACGAGAAGGCUAAACAUGAGGAUCACCCAUGUGUCCUAGCGG [Fiskers Ex 6 - 34] (puzzle: Exclusion 6)	10.9			
GGCACACAUGAGGAUCACCCAUGUGAGGAUAUGUUAGUUUCGGCCAAAGCCGAAAUUAACAGAAGGCACAUGCC [JR_Exclusion1_Sub021] (puzzle: Exclusion 1)	13.3			
AGGCGCUCUGUUAGGAUAUUUGCUGACUACUAGGCGGAGAAGGAACAUGAGGAUCACCCAUGUAUACGAUCCGC [BmEX4 C.16] (Eterna round: R97, puzzle: Brourd's mod of Exclusion 4)		13.7	12.1	
AUAAUAAUAUAGGAUAUCGAAUUAAUUAUUUAACGAGAAGGAUGAACAUGAGGAUCACCCAUGUGGUAUCAUGG [Mat - Exclusion 6 - JL Mod - D34] (puzzle: Exclusion 6)	244			apparent KD of MS2 coat protein [1]: 255 nM; apparent KD of MS2 coat protein [3]: 317 nM
CGGCGACAUGAGGAUCACCCAUGUGAGGAUAUGACGGGAAAAGCGUGAGCAGUUUGUGGCAGAAGGCGCGUAGG [salish99_ex1_r4_083] (Eterna round: R97, puzzle: Exclusion 1)		23.5	117	
UUCAUGUGAGGAUAUUAGUAGUAAAUGAAUAAAAUUAUUACUGAGAAGGUACAUGAGGAUCACCCAUGUUCCUU [Mat - Exclusion 4 - Eli Mod - D21] (Eterna round: R97, puzzle: Exclusion 4)		20.1	14.6	
GGCCCGGGAGGAUAUACAUGAGGAUCACCCAUGUUGAGCUUGAGGAUCUUCGAGUUCGGUAGAAGGCCCGGGCC [-35.1, -32.9 kcal, 22% A, 1, 0] (Eterna round: R97, puzzle: Exclusion 3)		201	27.2	
